Among the data in article PMC11564011 (Heliyon, 2024) are EC50, IC50 and Kd values, retold here.

A word on the EC50: it is the midpoint of the concentration-response curve. A high value points to a need for much substance. What is called IC50 is the point on the concentration scale where inhibition reaches its midpoint. By Kd is commonly meant a measure of binding affinity in units of concentration. A high value points to lower affinity.

Assay [1] concerns the target T1, PD-L1 on CD47+/PD-L1+ tumor cells (RKO, ES-2, HT-1080, HCC827) (human (endogenous in RKO, ES-2, …, UniProt Q9NZQ7)). Briefly: flow cytometry on cells. Background: Flow cytometry measures light scatter and fluorescence of single cells or particles in a stream.
The target of assay [2] is T2, PD-L1 on CHO-PD-L1 cells (human, UniProt Q9NZQ7). In words: flow cytometry on cells.
T2 sequence (Q9NZQ7 19-290): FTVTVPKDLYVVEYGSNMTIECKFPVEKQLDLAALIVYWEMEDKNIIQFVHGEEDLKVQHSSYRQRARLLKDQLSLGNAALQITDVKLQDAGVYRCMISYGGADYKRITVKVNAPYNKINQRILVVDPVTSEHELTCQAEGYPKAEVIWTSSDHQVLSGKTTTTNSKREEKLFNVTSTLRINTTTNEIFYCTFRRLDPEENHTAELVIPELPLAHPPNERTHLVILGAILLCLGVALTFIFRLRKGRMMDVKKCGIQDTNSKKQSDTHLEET
Assay [3] concerns the target T1, PD-L1 on CD47+/PD-L1+ tumor cells (RKO, …). In words: flow cytometry on cells. This is another data set of the same source.
The target in assay [4] is mFc-tag CD47 antigen (human) (UniProt Q08722). Briefly: ELISA.
mFc-tag CD47 antigen (human), sequence (Q08722 19-323): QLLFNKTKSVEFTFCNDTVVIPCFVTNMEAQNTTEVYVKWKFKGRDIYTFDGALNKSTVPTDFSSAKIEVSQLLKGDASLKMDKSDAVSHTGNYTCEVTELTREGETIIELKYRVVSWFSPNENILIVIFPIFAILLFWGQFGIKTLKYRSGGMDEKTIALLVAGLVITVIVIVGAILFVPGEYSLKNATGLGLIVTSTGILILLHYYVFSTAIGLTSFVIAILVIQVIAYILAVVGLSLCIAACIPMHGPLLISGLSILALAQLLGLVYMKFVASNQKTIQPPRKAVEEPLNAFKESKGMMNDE
For assay [5], the target named is T2, PD-L1 on CHO-PD-L1 cells. In words: flow cytometry on cells. This is another data set of the same source.
Assay [6] deals with T3, His-tag PD-L1 antigen (Homo sapiens, UniProt Q9NZQ7). In words: ELISA. (An ELISA detects its analyte on a solid surface through an enzyme-linked reagent.)
T3 sequence (Q9NZQ7 19-238): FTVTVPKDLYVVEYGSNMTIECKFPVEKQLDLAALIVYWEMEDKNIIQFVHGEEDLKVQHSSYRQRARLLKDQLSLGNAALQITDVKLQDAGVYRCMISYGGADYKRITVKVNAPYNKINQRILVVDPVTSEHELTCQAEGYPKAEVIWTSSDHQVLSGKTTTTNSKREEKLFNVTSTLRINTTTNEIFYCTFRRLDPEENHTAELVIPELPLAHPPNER
The target in assay [7] is mFc-tag CD47 antigen (human) (UniProt Q08722). Briefly: BLI.
Assay [8] addresses T3, His-tag PD-L1 antigen. In words: BLI. (In general: BLI is a label-free optical method that tracks binding on a fibre tip over time.)

T1 sequence (Q9NZQ7 19-290): as the sequence (Q9NZQ7 19-290) above

B1: IMM2520 (bispecific antibody, V domains shown)
VH: QVQLVQSGAEVKKPGASVKVSCKASGYTFTSNWMHWVRQAPGQGLEWMGMIHPNSGSSNYNEKFKSRVTMTRDTSTSTVYMELSSLRSEDTAVYYCARSYYGSSPYYFDYWGQGTLVTVSS
VL: DIQMTQSPSSLSASVGDRVTITCRASQDIINYLNWYQQKPGKAPKLLIYYTSRLHSGVPSRFSGSGSGTDFTFTISSLQPEDIATYYCQQGDTLPWTFGQGTKVEIK
Turning to B1, the EC50 in assay [1] turned out to be 0.145 nM; with PD-L1 on CHO-PD-L1 cells [2], 0.845 nM; in assay [4], 0.079 nM; with His-tag PD-L1 antigen [6], 0.456 nM. Moreover, the IC50 in assay [3] amounted to 0.0123 nM; in the assay with PD-L1 on CHO-PD-L1 cells [5], 0.121 nM. For the same molecule, the Kd in assay [7] came to 2.49 nM; in the assay with His-tag PD-L1 antigen [8], 0.576 nM.
